Reference: paper PMC5665649 (eLife, 2017)
Read-outs that look alike come from different tables or passages of the source.

Key:
[1] = molecular target: GluA2 amino terminal domain (ATD), DyLight 488-labeled; test: AUC; homodimer KD of GluA2 as given in Table 2 under UL GluA2 and DL-GluA2; the experiment itself is not described in this paper
[2] = molecular target: GluA2 amino terminal domain (ATD), DyLight 488-labeled; test: AUC; direct Lamm equation fits, done here, of previously reported SV data for GluA2 (Zhao et al., 2013d) and GluA3 (Zhao et al., 2012); homodimer
[3] = molecular target: EGFP-GluA1 amino terminal domain fusion protein (UniProt P19490); test: AUC; FDS-SV titration for hetero-dimerization: constant low concentration (50 pM-1 nM) of the ATD carrying the fluorophore, unlabeled partner from 0.2 nM up to µM; sw isotherm fit with coupled competitive homo- and hetero-dimerization model, homodimer KD fixed; 20 °C, 50,000 rpm, 0.1 mg/mL BSA
[4] = molecular target: GluA3 amino terminal domain (ATD), unlabeled; test: AUC; direct Lamm equation fits, done here, of previously reported SV data for GluA2 (Zhao et al., 2013d) and GluA3 (Zhao et al., 2012); homodimer
[5] = molecular target: EGFP-GluA4 amino terminal domain fusion protein (UniProt P19493); test: AUC; FDS-SV titration for hetero-dimerization: constant low concentration (50 pM-1 nM) of the ATD carrying the fluorophore, unlabeled partner from 0.2 nM up to µM; sw isotherm fit with coupled competitive homo- and hetero-dimerization model, homodimer KD fixed; 20 °C, 50,000 rpm, 0.1 mg/mL BSA
EGFP-GluA4 amino terminal domain fusion protein, sequence (P19493 21-413): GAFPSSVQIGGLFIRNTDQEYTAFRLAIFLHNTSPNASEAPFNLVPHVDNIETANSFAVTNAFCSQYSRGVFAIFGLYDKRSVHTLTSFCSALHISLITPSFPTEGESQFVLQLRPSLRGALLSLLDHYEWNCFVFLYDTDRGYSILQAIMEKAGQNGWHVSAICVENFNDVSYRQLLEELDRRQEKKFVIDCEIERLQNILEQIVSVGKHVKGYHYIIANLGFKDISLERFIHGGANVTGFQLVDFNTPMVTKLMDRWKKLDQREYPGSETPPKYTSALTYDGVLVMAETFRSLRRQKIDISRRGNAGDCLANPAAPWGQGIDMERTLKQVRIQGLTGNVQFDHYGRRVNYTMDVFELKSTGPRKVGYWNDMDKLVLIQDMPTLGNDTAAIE

[6] = molecular target: GluA2 amino terminal domain (ATD), DyLight 488-labeled; test: as above
[7] = molecular target: GluK1 amino terminal domain (ATD) G213N/M215T, DyLight 488-labeled; test: AUC; fluorescence-detected sedimentation velocity (FDS-SV), tracer titration for self-association: 0.2-1 nM DyLight 488-labeled ATD with a series of the same unlabeled ATD; sw isotherm fit with monomer-dimer model (dimer to monomers); 20 °C, 50,000 rpm, 0.1 mg/mL BSA
[8] = molecular target: GluK2 ATD (Rattus norvegicus) (UniProt P42260); conditions: cited from earlier work
[9] = molecular target: GluK4 amino terminal domain (ATD), unlabeled (UniProt Q01812); test: AUC; sedimentation velocity with absorbance detection at 280 nm, unlabeled GluK4 0.3-29 µM; 20 °C, 50,000 rpm
[10] = molecular target: GluK1 amino terminal domain (ATD) G213N/M215T, DyLight 488-labeled; test: AUC; FDS-SV titration for hetero-dimerization: constant low concentration (50 pM-1 nM) of the ATD carrying the fluorophore, unlabeled partner from 0.2 nM up to µM; sw isotherm fit with coupled competitive homo- and hetero-dimerization model, homodimer KD fixed; 20 °C, 50,000 rpm, 0.1 mg/mL BSA
[11] = molecular target: GluK2 amino terminal domain (ATD) G215N/M217T, DyLight 488-labeled (UniProt P42260); test: as above
[12] = molecular target: GluK5 ATD (Rattus norvegicus) (UniProt Q63273); conditions: cited from earlier work
[13] = molecular target: the molecule itself; test: AUC; FDS-SV, dilution series of the fluorescent protein alone (DyLight 488-GluK3 50 pM-1.2 µM; EGFP-GluA1 100 pM-1.2 µM; EGFP-GluA4 500 pM-1.2 µM); c(s) and sw isotherm, monomer-dimer model (dimer to monomers); 20 °C, 50,000 rpm, 0.1 mg/mL BSA
[14] = molecular target: the molecule itself; test: as above; remark: listed apart in the source
[15] = molecular target: the molecule itself; test: as above; remark: listed apart in the source
[16] = molecular target: T1, GluK2 amino terminal domain (ATD) G215N/M217T, DyLight 488-labeled (UniProt P42260 32-420, G215N | M217T, DyLight 488 (NHS ester-activated), labeling ratios typically 0.9-1.3, sites not stated); test: AUC; fluorescence-detected sedimentation velocity (FDS-SV), tracer titration for self-association: 0.2-1 nM DyLight 488-labeled ATD with a series of the same unlabeled ATD; sw isotherm fit with monomer-dimer model (dimer to monomers); 20 °C, 50,000 rpm, 0.1 mg/mL BSA; conditions: both partners purified
T1 construct: signal peptide in the construct; GluK2 kainate receptor ATD cDNA with native signal peptide, last residue Lys389; N-linked glycosylation site inserted in the lateral face; Same construct as m3, chemically labeled; also called DL-GluK2; DyLight 488-labeled GluK2; source: HEK cell suspension cultures, transient transfection (PEI), secreted into medium; purified (Ni2+ HiTrap chelating, thrombin …)
T1 sequence (looked up): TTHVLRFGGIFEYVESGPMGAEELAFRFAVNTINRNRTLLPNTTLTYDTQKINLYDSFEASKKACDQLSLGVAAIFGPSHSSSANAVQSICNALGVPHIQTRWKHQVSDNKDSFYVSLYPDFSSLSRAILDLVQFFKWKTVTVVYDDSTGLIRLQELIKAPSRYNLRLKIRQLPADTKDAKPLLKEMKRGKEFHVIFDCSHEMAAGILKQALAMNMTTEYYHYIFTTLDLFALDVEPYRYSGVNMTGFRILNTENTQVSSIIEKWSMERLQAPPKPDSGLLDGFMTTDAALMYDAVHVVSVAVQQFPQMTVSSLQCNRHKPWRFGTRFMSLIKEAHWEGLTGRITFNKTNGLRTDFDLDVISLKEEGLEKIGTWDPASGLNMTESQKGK

[17] = molecular target: T2, GluK5 amino terminal domain (ATD), DyLight 488-labeled; test: AUC; FDS-SV titration for hetero-dimerization: constant low concentration (50 pM-1 nM) of the ATD carrying the fluorophore, unlabeled partner from 0.2 nM up to µM; sw isotherm fit with coupled competitive homo- and hetero-dimerization model, homodimer KD fixed; 20 °C, 50,000 rpm, 0.1 mg/mL BSA
T2 sequence (Q63273 whole entry, species assumed, looked up): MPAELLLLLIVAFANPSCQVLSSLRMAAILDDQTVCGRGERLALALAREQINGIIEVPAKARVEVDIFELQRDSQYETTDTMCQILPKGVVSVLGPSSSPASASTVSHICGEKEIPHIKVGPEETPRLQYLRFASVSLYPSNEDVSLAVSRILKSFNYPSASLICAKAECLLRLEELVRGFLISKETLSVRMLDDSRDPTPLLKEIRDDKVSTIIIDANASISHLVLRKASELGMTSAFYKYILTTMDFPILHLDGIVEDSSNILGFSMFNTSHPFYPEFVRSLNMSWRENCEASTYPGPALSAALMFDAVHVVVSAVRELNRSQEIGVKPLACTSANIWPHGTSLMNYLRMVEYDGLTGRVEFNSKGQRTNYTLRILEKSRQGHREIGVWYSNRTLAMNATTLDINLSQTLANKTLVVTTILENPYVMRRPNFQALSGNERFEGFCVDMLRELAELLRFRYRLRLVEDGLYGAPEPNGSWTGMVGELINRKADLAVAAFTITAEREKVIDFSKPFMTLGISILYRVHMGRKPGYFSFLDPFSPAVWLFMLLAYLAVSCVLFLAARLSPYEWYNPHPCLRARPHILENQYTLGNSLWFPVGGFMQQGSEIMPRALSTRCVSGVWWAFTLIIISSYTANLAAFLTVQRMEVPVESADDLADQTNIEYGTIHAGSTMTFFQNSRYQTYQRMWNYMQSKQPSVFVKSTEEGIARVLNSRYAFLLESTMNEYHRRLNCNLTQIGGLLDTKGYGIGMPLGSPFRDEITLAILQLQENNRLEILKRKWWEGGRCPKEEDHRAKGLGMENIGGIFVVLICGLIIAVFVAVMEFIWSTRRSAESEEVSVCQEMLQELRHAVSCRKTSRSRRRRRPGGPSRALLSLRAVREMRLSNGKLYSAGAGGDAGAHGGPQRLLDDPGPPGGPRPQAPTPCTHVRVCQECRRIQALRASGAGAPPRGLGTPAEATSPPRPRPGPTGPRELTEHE

GluA2 amino terminal domain (ATD), unlabeled (domain or fragment)
Kd [1]: 0.0211 µM | koff [2]: > 0.003 s⁻¹ | kon [2]: > 140000 M⁻¹ s⁻¹ | Kd [3]: 0.0029 µM

GluA3 amino terminal domain (ATD), unlabeled (domain or fragment)
koff [4]: > 0.003 s⁻¹ | Kd [3]: 0.0083 µM | Kd [5]: 0.091 µM | Kd [6]: 0.0013 µM

GluK1 amino terminal domain (ATD) G213N/M215T, unlabeled (domain or fragment)
Kd [7]: 1.2 µM

GluK2 ATD (from UniProt P42260)
Kd [8]: 0.25 µM

GluK4 amino terminal domain (ATD), unlabeled (from UniProt Q01812 21-399) (domain or fragment)
Kd [9]: > 1000 µM | Kd [10]: 0.146 µM | Kd [11]: 0.057 µM

GluK5 ATD (from UniProt Q63273)
Kd [12]: 350 µM

GluK5 amino terminal domain (ATD), unlabeled (domain or fragment)
Kd [10]: 0.018 µM | Kd [11]: 0.012 µM

B1: GluK3 amino terminal domain (ATD) T221N/Y223S, DyLight 488-labeled (domain or fragment, UniProt P42264 32-423, looked up)
chain: MPHVIRIGGIFEYADGPNAQVMNAEEHAFRFSANIINRNRTLLPNTTLTYDIQRIHFHDSFEATKKACDQLALGVVAIFGPSQGSCTNAVQSICNALEVPHIQLRWKHHPLDNKDTFYVNLYPDYASLSHAILDLVQSLKWRSATVVYDDSTGLIRLQELIMAPSRYNIRLKIRQLPIDSDDSRPLLKEMKRGREFRIIFDCSHTMAAQILKQAMAMGMMNESYHFIFTTLDLYALDLEPYRYSGVNLTGFRILNVDNAHVSAIVEKWSMERLQAAPRAESGLLDGVMMTDAALLYDAVHIVSVCYQRASQMTVNSLQCHRHKPWRFGGRFMNFIKEAQWEGLTGRIVFNKTSGLRTDFDLDIISLKEDGLEKVGVWSPADGLNITEVAKGR
modifications: DyLight 488 (NHS ester-activated), labeling ratios typically 0.9-1.3, sites not stated
notes: signal peptide in the construct; GluK3 kainate receptor ATD cDNA with native signal peptide, last residue Arg392; N-linked glycosylation site inserted in the lateral face; also called DL-GluK3; DL GluK3; source: HEK cell suspension cultures, transient transfection (PEI), secreted into medium; purified (Ni2+ HiTrap chelating, thrombin digestion, ion exchange); labeled, Superdex 75
stoichiometry N [13]: 2 | Kd [14]: < 0.05 nM

B2: EGFP-GluA1 amino terminal domain fusion protein (domain or fragment, UniProt P19490 19-21, looked up)
chain: VGANFPNNIQIGGLFPNQQSQEHAAFRFALSQLTEPPKLLPQIDIVNISDSFEMTYRFCSQFSKGVYAIFGFYERRTVNMLTSFCGALHVCFITPSFPVDTSNQFVLQLRPELQEALISIIDHYKWQTFVYIYDADRGLSVLQRVLDTAAEKNWQVTAVNILTTTEEGYRMLFQDLEKKKERLVVVDCESERLNAILGQIVKLEKNGIGYHYILANLGFMDIDLNKFKESGANVTGFQLVNYTDTIPARIMQQWRTSDSRDHTRVDWKRPKYTSALTYDGVKVMAEAFQSLRRQRIDISRRGNAGDCLANPAVPWGQGIDIQRALQQVRFEGLTGNVQFNEKGRRTNYTLHVIEMKHDGIRKIGYWNEDDKFVPAATDAQAGGDNSSVQ
notes: signal peptide in the construct; GluA1 signal peptide and ATD, residues Met1-Phe21, before SGSG-EGFP; GluA1 AMPA receptor ATD, residues Val17-Gln405, after EGFP-SGSG; The two printed ranges overlap (17-21); also called GluA1 ATD-EGFP; GluA1-EGFP fusion protein; source: Sf9 insect cells, baculovirus (pFastBac1), secreted into medium; purified (Ni2+ HiTrap chelating, thrombin digestion, ion …)
Kd [15]: 0.0284 µM

B3: GluK2 amino terminal domain (ATD) G215N/M217T, unlabeled (domain or fragment, UniProt P42260 32-420, looked up)
chain: T1 sequence (looked up)
notes: signal peptide in the construct; GluK2 kainate receptor ATD cDNA with native signal peptide, last residue Lys389; N-linked glycosylation site inserted in the lateral face; also called UL GluK2; GluK2 ATD; source: HEK cell suspension cultures, transient transfection (PEI), secreted into medium; purified (Ni2+ HiTrap chelating, thrombin digestion, ion exchange)
Kd [16]: 0.163 µM | Kd [10]: 1.8 µM | Kd [17]: 0.0094 µM
